Data taken from PMC10531876, “PLK1 Regulates MicroRNA Biogenesis through Drosha Phosphorylation” (International Journal of Molecular Sciences, 2023).

Target: T1, Flag-Drosha S300E,S302D (phospho-mimic) (UniProt Q9NRR4 1-1374, S300E | S302D)
T1 construct: Drosha with S300E and S302D, Flag-tagged as m1; also called phospho-mimic Drosha; source: HEK293T, transfected, in lysate
T1 sequence (looked up): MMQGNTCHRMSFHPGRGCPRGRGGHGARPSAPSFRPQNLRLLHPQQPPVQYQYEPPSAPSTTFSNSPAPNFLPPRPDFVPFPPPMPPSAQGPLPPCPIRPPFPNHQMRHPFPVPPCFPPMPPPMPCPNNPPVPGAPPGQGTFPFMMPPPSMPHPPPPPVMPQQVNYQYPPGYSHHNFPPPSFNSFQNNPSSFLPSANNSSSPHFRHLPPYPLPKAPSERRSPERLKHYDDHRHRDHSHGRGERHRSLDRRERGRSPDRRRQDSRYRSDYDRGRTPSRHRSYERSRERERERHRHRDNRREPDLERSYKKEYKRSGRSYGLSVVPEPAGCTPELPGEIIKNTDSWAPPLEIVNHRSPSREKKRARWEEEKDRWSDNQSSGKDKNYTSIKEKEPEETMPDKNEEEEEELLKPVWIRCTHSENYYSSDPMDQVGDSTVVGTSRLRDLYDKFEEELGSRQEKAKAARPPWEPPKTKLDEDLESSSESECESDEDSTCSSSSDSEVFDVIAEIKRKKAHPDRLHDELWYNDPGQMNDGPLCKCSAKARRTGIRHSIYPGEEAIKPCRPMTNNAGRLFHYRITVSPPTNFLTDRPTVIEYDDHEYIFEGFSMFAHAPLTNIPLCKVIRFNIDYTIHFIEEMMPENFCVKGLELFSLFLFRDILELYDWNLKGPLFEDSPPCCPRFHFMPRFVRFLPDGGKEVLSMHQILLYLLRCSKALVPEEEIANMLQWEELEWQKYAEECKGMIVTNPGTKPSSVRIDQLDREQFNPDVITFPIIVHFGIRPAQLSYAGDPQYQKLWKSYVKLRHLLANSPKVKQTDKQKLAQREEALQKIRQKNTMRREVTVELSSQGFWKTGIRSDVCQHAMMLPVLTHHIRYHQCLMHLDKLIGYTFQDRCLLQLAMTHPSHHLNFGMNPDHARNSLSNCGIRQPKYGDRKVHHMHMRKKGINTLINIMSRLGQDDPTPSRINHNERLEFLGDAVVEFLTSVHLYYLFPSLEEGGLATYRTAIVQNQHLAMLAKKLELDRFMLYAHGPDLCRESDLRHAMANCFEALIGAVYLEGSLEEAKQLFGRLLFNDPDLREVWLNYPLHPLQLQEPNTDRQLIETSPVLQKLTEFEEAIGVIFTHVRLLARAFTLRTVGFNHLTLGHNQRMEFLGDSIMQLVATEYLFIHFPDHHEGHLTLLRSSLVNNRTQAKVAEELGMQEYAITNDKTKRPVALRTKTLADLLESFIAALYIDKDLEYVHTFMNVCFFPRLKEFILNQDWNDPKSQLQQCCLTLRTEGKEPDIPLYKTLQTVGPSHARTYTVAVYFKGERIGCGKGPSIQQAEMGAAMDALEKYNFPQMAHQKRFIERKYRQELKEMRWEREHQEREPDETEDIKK
Assay: co-IP; Flag immunoprecipitates of HEK293T cells transfected with Flag-Drosha (WT or mutants), blotted for PLK1 or DGCR8; cells treated with DMSO, RO-520 (100 nM) or NMS (500 nM) for 16 h, or samples with RNase A; mutant panel 72 h after transfection
Conditions: partners not purified

fold change of co-precipitated DGCR8 against WT Drosha: 2.5 fold
B1: DGCR8 (natural protein, human (endogenous in HEK293T), UniProt Q8WYQ5 1-773, looked up)
chain: METDESPSPLPCGPAGEAVMESRARPFQALPREQSPPPPLQTSSGAEVMDVGSGGDGQSELPAEDPFNFYGASLLSKGSFSKGRLLIDPNCSGHSPRTARHAPAVRKFSPDLKLLKDVKISVSFTESCRSKDRKVLYTGAERDVRAECGLLLSPVSGDVHACPFGGSVGDGVGIGGESADKKDEENELDQEKRVEYAVLDELEDFTDNLELDEEGAGGFTAKAIVQRDRVDEEALNFPYEDDFDNDVDALLEEGLCAPKKRRTEEKYGGDSDHPSDGETSVQPMMTKIKTVLKSRGRPPTEPLPDGWIMTFHNSGVPVYLHRESRVVTWSRPYFLGTGSIRKHDPPLSSIPCLHYKKMKDNEEREQSSDLTPSGDVSPVKPLSRSAELEFPLDEPDSMGADPGPPDEKDPLGAEAAPGALGQVKAKVEVCKDESVDLEEFRSYLEKRFDFEQVTVKKFRTWAERRQFNREMKRKQAESERPILPANQKLITLSVQDAPTKKEFVINPNGKSEVCILHEYMQRVLKVRPVYNFFECENPSEPFGASVTIDGVTYGSGTASSKKLAKNKAARATLEILIPDFVKQTSEEKPKDSEELEYFNHISIEDSRVYELTSKAGLLSPYQILHECLKRNHGMGDTSIKFEVVPGKNQKSEYVMACGKHTVRGWCKNKRVGKQLASQKILQLLHPHVKNWGSLLRMYGRESSKMVKQETSDKSVIELQQYAKKNKPNLHILSKLQEEMKRLAEEREETRKKPKMSIVASAQPGGEPLCTVDV
notes: DGCR8, Microprocessor cofactor of Drosha, detected by blot in Flag immunoprecipitates of HEK293T cells; source: HEK293T lysate (cells transfected with Flag-Drosha only)
